Measurements: publication PMC6118392, “VapC proteins from Mycobacterium tuberculosis share ribonuclease sequence specificity but differ in regulation and toxicity” (PLoS ONE, 2018)

target: T1, VapB29;VapC29 (Mycobacterium tuberculosis …, UniProt P9WJ37;P9WF79 1-75;1-133, |); experiment: EMSA; conditions: protein: recombinant;recombinant; tags: ;C-terminal His; label: 3' DIG-ddUTP; blunt
T1 sequence 1: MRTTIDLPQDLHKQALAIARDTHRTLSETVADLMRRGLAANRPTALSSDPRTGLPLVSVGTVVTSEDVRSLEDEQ
T1 sequence 2: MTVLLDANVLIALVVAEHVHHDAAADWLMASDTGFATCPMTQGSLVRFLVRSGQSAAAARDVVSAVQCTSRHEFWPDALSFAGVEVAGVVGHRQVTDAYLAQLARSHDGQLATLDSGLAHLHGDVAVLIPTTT

Binder | binding result
Oligo 5 Bind 5 (Mut. 5) (dsDNA) DNA 1: GGTGAGCGTCGGCGCGCGCATCACGATGCAAAAAAATTAGGATGAGGCGG DNA 2: CCGCCTCATCCTAATTTTTTTGCATCGTGATGCGCGCGCCGACGCTCACC | no binding
Oligo 5 Bind 3 (Mut. 3) (dsDNA) DNA 1: GGTGAGCGTCGGCGCGAAAAAAACGATGCAGCGATGTTAGGATGAGGCGG DNA 2: CCGCCTCATCCTAACATCGCTGCATCGTTTTTTTCGCGCCGACGCTCACC | no binding

Target: the molecule itself
Experiment: SEC
Conditions: not given

Binder | stoichiometry N
VapBC19 heterodimer (complex, VapB19 antitoxin of Mycobacterium tuberculosis, gene Rv2547; as m3; VapC19 toxin of Mycobacterium tuberculosis, gene Rv2548; as m4; also called Rv2547/Rv2548) chain 1: MRTQVTLGKEELELLDRAAKASGASRSELIRRAIHRAYGTGSKQERLAALDHSRGSWRGRDFTGTEYVDAIRGDLNERLARLGLA chain 2: MKLIDTTIAVDHLRGEPAAAVLLAELINNGEEIAASELVRFELLAGVRESELAALEAFFSAVVWTLVTEDIARIGGRLARRYRSSHRGIDDVDYLIAATAIVVDADLLTTNVRHFPMFPDLQPPY | 3.61 VapBC heterodimers per complex
VapBC39 heterodimer (complex, VapB39 antitoxin of Mycobacterium tuberculosis, gene Rv2530a; as m9; VapC39 toxin of Mycobacterium tuberculosis, gene Rv2530c; as m10; also called Rv2530a/Rv2530c) chain 1: MRTTLQIDDDVLEDARSIARSEGKSVGAVISELARRSLRPVGIVEVDGFPVFDVPPDAPTVTSEDVVRALEDDV chain 2: MTALLDVNVLIALGWPNHVHHAAAQRWFTQFSSNGWATTPITEAGYVRISSNRSVMQVSTTPAIAIAQLAAMTSLAGHTFWPDDVPLIVGSAGDRDAVSNHRRVTDCHLIALAARYGGRLVTFDAALADSASAGLVEVL | 4.9 VapBC heterodimers per complex
VapBC1 heterodimer (complex, VapB1 antitoxin of Mycobacterium tuberculosis, gene Rv0064a; as m1; VapC1 toxin of Mycobacterium tuberculosis, gene Rv0065; as m2; also called Rv0064a/Rv0065) chain 1: MATIQVRDLPEDVAETYRRRATAAGQSLQTYMRTKLIEGVRGRDKAEAIEILEQALASTASPGISRETIEASRRELRGG chain 2: MDECVVDAAAVVDALAGKGASAIVLRGLLKESISNAPHLLDAEVGHALRRAVLSDEISEEQARAALDALPYLIDNRYPHSPRLIEYTWQLRHNVTFYDALYVALATALDVPLLTGDSRLAAAPGLPCEIKLVR | 5.6 VapBC heterodimers per complex
VapBC29 heterodimer (complex, VapB29 antitoxin of Mycobacterium tuberculosis, gene Rv0616a; as m7; VapC29 toxin of Mycobacterium tuberculosis, gene Rv0617; as m8; also called Rv0616a/Rv0617) chain 1: MRTTIDLPQDLHKQALAIARDTHRTLSETVADLMRRGLAANRPTALSSDPRTGLPLVSVGTVVTSEDVRSLEDEQ chain 2: MTVLLDANVLIALVVAEHVHHDAAADWLMASDTGFATCPMTQGSLVRFLVRSGQSAAAARDVVSAVQCTSRHEFWPDALSFAGVEVAGVVGHRQVTDAYLAQLARSHDGQLATLDSGLAHLHGDVAVLIPTTT | 5 VapBC heterodimers per complex
